Measured values published in PMC3258144.

Target: Dnmt3a-C WT (mouse, UniProt O88508 608-908)
Assay: fluorescence anisotropy

Sequence of Dnmt3a-C WT (O88508 608-908): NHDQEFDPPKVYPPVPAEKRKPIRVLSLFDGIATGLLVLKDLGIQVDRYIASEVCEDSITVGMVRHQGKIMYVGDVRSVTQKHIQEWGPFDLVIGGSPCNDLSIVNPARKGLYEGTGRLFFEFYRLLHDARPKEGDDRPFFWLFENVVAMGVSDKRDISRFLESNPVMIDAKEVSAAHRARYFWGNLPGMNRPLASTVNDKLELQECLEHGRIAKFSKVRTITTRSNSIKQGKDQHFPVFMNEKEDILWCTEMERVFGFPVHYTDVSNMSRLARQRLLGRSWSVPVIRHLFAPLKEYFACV

B1: 2CG-Cy5 29-mer (dsDNA)
DNA 1: ACTTGCAACGGTCCTAACCGTCACCTCTT
DNA 2: AAGAGGTGACGGTTAGGACCGTTGCAAGT
Kd: 190 ± 10 nM

B2: Non-CG-Cy5 29-mer (dsDNA)
DNA 1: ACTTGCAACAGTCCTAACATTCACCTCTT
DNA 2: AAGAGGTGAATGTTAGGACTGTTGCAAGT
Kd: 130 ± 12 nM
